Test results from PMC2175515, “Hfq stimulates the activity of the CCA-adding enzyme”.

Target: Hfq (Escherichia coli, UniProt P0A6X3 1-102)
Test: competition; competitor 20-600 fmol vs 20 fmol labelled tRNA (N1); Same conditions as the CCA-addition assay (30 °C, 1 and 10 min); buffer, salt and pH not in the material; native 6% polyacrylamide gel
Details: protein: recombinant; chain copies: 6

Sequence of Hfq (P0A6X3 whole entry): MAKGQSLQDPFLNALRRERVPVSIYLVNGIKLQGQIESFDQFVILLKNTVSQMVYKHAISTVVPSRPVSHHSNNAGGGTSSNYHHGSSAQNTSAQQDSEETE

B1: pCR 2.1 TOPO run-off transcript (ssRNA)
RNA: GGGCGAAUUGGGCCCUCUAGAUGCAUGCUCGAGCGGCCGCCAGUGUGAUGGAU
Does B1 bind?
Result: no binding
